Consider 179 variants from IntAct's records for PubMed 29039417.

Sequences and labels used below:
B1: BBSome complex member BBS5 (Homo sapiens), Q8N3I7 (parent)
chain: MSVLDALWEDRDVRFDLSAQQMKTRPGEVLIDCLDSIEDTKGNNGDRGRLLVTNLRILWHSLALSRVNVSVGYNCILNITTRTANSKLRGQTEALYILTKCNSTRFEFIFTNLVPGSPRLFTSVMAVHRAYETSKMYRDFKLRSALIQNKQLRLLPQEHVYDKINGVWNLSSDQGNLGTFFITNVRIVWHANMNDSFNVSIPYLQIRSIKIRDSKFGLALVIESSQQSGGYVLGFKIDPVEKLQESVKEINSLHKVYSASPIFGVDYEMEEKPQPLEALTVEQIQDDVEIDSDGHTDAFVAYFADGNKQQDREPVFSEELGLAIEKLKDGFTLQGLWEVMS
partner: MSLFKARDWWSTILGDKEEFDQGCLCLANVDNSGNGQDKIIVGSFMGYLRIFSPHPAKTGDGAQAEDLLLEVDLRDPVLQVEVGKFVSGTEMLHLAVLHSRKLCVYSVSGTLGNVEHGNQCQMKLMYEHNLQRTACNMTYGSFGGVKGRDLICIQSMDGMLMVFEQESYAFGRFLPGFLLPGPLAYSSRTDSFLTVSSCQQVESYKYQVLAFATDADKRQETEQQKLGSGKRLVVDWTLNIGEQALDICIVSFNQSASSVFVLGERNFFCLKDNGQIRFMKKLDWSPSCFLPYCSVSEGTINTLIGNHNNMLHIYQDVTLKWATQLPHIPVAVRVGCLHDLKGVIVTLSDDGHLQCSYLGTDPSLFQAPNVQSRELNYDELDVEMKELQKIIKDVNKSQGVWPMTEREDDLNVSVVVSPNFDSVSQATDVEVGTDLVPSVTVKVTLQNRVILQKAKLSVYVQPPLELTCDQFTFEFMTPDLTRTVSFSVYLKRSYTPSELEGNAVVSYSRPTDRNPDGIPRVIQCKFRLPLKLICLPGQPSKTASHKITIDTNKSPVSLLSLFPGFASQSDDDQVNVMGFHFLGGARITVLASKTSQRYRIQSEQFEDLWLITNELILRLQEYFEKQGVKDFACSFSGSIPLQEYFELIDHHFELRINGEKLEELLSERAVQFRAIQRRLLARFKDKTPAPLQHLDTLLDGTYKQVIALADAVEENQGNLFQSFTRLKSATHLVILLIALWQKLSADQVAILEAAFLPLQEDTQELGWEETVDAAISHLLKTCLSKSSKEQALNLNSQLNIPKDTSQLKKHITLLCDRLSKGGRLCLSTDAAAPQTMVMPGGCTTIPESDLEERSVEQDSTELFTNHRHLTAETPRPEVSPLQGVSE

In the assay the parent is B1. The conditions noted are these: with pthb1_human BBS9, Q3SYG4.
As to N112K, the “effect of a mutation on the interaction” value is listed as “with no effect”.
For N112A the value was “with no effect”; for N112E, “with no effect”.
On to L64K, for which the “effect of a mutation on the interaction” value is reported as “with no effect”.
Consider L64E, for which the “effect of a mutation on the interaction” value was “with no effect”.
For L64A the value was “with no effect”; for E107A, “with no effect”.
To E107K belongs “with no effect”; to I109A, “with no effect”; to I109K, “with no effect”.
I109E: the “effect of a mutation on the interaction” value is listed as “with no effect”.
C101K: the “effect of a mutation on the interaction” value is recorded as “with no effect”.
As to C101A, the “effect of a mutation on the interaction” value was “with no effect”.
For C101E the value was “with no effect”; for T99E, “disrupting interaction strength”.
To T99A belongs “with no effect”; to T99K, “with no effect”; to R56G, “disrupting interaction strength”.
To R56K belongs “disrupting interaction strength”.
Consider R66A, for which the “effect of a mutation on the interaction” value is reported as “with no effect”.
Turning to R66E, the “effect of a mutation on the interaction” value was “with no effect”.
To R66K belongs “with no effect”.
For F108A the value was “with no effect”; for F108K, “with no effect”.
In the case of F108E, the “effect of a mutation on the interaction” value is reported as “disrupting interaction strength”.
As to A84K, the “effect of a mutation on the interaction” value was “with no effect”.
To A84E belongs “with no effect”.
To H60K belongs “with no effect”.
To H60E belongs “with no effect”; to H60A, “with no effect”.
Regarding S65A, the “effect of a mutation on the interaction” value is “with no effect”.
To S65E belongs “with no effect”; to S65K, “with no effect”; to Y73A, “with no effect”.
For Y73E the value was “with no effect”; for Y73K, “with no effect”.
To L98E belongs “with no effect”; to L98K, “with no effect”; to L98A, “with no effect”.
With R89K, the “effect of a mutation on the interaction” value was “with no effect”.
For R89E the value was “with no effect”; for R89A, “with no effect”; for I57A, “with no effect”.
Take I57K: the “effect of a mutation on the interaction” value is “with no effect”.
To I57E belongs “with no effect”.
Take L95A: the “effect of a mutation on the interaction” value was “with no effect”.
For L95E the value was “disrupting interaction strength”; for L95K, “with no effect”; for F110K, “with no effect”.
Consider F110A, for which the “effect of a mutation on the interaction” value is “with no effect”.
For F110E, the “effect of a mutation on the interaction” value is listed as “with no effect”.
For L58A the value was “with no effect”; for L58E, “with no effect”; for L58K, “disrupting interaction strength”.
To T111E belongs “with no effect”; to T111A, “with no effect”; to T111K, “with no effect”.
To T81A belongs “with no effect”; to T81E, “with no effect”; to T81K, “with no effect”.
Turning to G72K, the “effect of a mutation on the interaction” value is recorded as “with no effect”.
Take G72A: the “effect of a mutation on the interaction” value is given as “with no effect”.
On to G72S, for which the “effect of a mutation on the interaction” value is “disrupting interaction strength”.
For G72E the value was “with no effect”.
To W59K belongs “with no effect”; to W59A, “with no effect”; to W59E, “with no effect”.
To T80A belongs “disrupting interaction strength”; to T80K, “with no effect”; to T80E, “with no effect”.
Turning to T80I, the “effect of a mutation on the interaction” value is “disrupting interaction strength”.
For G90A the value was “with no effect”.
To G90E belongs “with no effect”; to G90K, “with no effect”; to K87E, “with no effect”.
To K87A belongs “with no effect”; to L113A, “with no effect”.
As for L113K, the “effect of a mutation on the interaction” value is “with no effect”.
To L113E belongs “with no effect”; to L88E, “with no effect”.
To L88K belongs “with no effect”; to L88A, “with no effect”; to V71A, “with no effect”.
On to V71E, for which the “effect of a mutation on the interaction” value is “with no effect”.
Consider V71K, for which the “effect of a mutation on the interaction” value was “with no effect”.
R82A: the “effect of a mutation on the interaction” value is “with no effect”.
To R82E belongs “with no effect”; to R82K, “with no effect”.
Regarding C75K, the “effect of a mutation on the interaction” value was “with no effect”.
To C75E belongs “with no effect”.
Regarding C75A, the “effect of a mutation on the interaction” value is given as “with no effect”.
To A63K belongs “with no effect”; to A63E, “with no effect”.
For L62K the value was “with no effect”.
To L62A belongs “with no effect”; to L62E, “with no effect”; to T83E, “with no effect”.
For the variant T83A, the “effect of a mutation on the interaction” value is “disrupting interaction strength”.
As to T83K, the “effect of a mutation on the interaction” value is on record as “with no effect”.
To P115A belongs “with no effect”; to P115K, “with no effect”.
To P115E belongs “with no effect”; to V69K, “with no effect”; to V69E, “with no effect”.
For the variant V69A, the “effect of a mutation on the interaction” value is on record as “with no effect”.
For S61K the value was “with no effect”; for S61A, “with no effect”; for S61E, “with no effect”.
Take S61F: the “effect of a mutation on the interaction” value is “disrupting interaction strength”.
As to N68E, the “effect of a mutation on the interaction” value is “with no effect”.
For N68A the value was “disrupting interaction strength”; for N68K, “with no effect”; for E93K, “with no effect”.
Consider E93A, for which the “effect of a mutation on the interaction” value is “with no effect”.
To A94K belongs “with no effect”; to A94E, “with no effect”.
To V114E belongs “with no effect”; to V114K, “with no effect”; to V114A, “with no effect”.
As to F106K, the “effect of a mutation on the interaction” value is “with no effect”.
On to F106A, for which the “effect of a mutation on the interaction” value was “with no effect”.
To F106E belongs “with no effect”.
To S86A belongs “with no effect”.
With S86K, the “effect of a mutation on the interaction” value is on record as “with no effect”.
As to S86E, the “effect of a mutation on the interaction” value is “with no effect”.
To L77A belongs “with no effect”; to L77E, “with no effect”; to L77K, “with no effect”.
For the variant S70E, the “effect of a mutation on the interaction” value is listed as “with no effect”.
To S70A belongs “with no effect”; to S70K, “with no effect”; to T104K, “with no effect”.
To T104A belongs “with no effect”; to T104I, “disrupting interaction strength”; to T104E, “with no effect”.
As for I79A, the “effect of a mutation on the interaction” value is “with no effect”.
To I79K belongs “with no effect”; to I79E, “with no effect”.
To Q91K belongs “with no effect”.
For Q91E the value was “with no effect”; for Q91A, “with no effect”.
For the variant V67A, the “effect of a mutation on the interaction” value is reported as “with no effect”.
To V67K belongs “with no effect”; to V67E, “with no effect”.
N102E: the “effect of a mutation on the interaction” value is “with no effect”.
To N102K belongs “with no effect”.
For N102A, the “effect of a mutation on the interaction” value is given as “with no effect”.
To T92K belongs “with no effect”.
For T92A the value was “with no effect”; for T92E, “with no effect”.
To K100A belongs “with no effect”.
Take K100E: the “effect of a mutation on the interaction” value is reported as “with no effect”.
To I97K belongs “disrupting interaction strength”; to I97A, “with no effect”.
I97E: the “effect of a mutation on the interaction” value is “with no effect”.
For Y96K the value was “with no effect”; for Y96E, “with no effect”.
For Y96A the value was “with no effect”; for R105A, “with no effect”; for R105E, “with no effect”.
For R105K, the “effect of a mutation on the interaction” value is reported as “with no effect”.
To G116E belongs “with no effect”.
For the variant G116A, the “effect of a mutation on the interaction” value is on record as “with no effect”.
For I76K the value was “with no effect”; for I76A, “with no effect”; for I76E, “disrupting interaction strength”.
For I76T the value was “disrupting interaction strength”.
Consider N85E, for which the “effect of a mutation on the interaction” value is “with no effect”.
To N85A belongs “with no effect”; to N85K, “with no effect”; to N74E, “with no effect”.
To N74A belongs “with no effect”; to N74K, “with no effect”.
To N78K belongs “with no effect”; to N78E, “with no effect”; to N78A, “with no effect”.
S103A: the “effect of a mutation on the interaction” value is reported as “with no effect”.
For S103E the value was “with no effect”; for S103K, “with no effect”.
